{
  "source": "patent US12332249B1",
  "about": "“Biomolecule detection method using diffusion ordered spectroscopy” (KUWAIT UNIVERSITY, priority 2024, dated 2025)",
  "key": {"[1]": {"assay": "Hydrodynamic radius from DOSY diffusion coefficient by Stokes-Einstein equation", "assay_type": "physicochemical", "details": "obtained using Equation 2 (Stokes-Einstein)", "description": "According to Stokes-Einstein equation mentioned below, the diffusion coefficient of solutes is directly linked to the hydrodynamic radius.\nWhere Rh is the hydrodynamic radius, kB is the Boltzmann constant, T is the temperature in K and η is the solution viscosity ([…] for D2O, and 30° C.) and D is the diffusion coefficient. The diffusion coefficient value is directly proportional to the temperature (T) and inversely proportional to the hydrodynamic radius. Thus, the hydrodynamic radius is related to the molecular weight, the higher the molecular weight, the larger the radius, the lower the diffusion and vice versa."}, "[2]": {"details": "aqueous native avidin; cited from earlier work"}},
  "data": [
    {"substance": "avidin: protein with four identical subunits, each containing one binding site for biotin; from Sigma Aldrich", "values": [
      {"measurement": "hydrodynamic radius (Rh)", "setting": "[1]", "result": 22.02, "unit": "Å"},
      {"measurement": "hydrodynamic radius by dynamic light scattering (DLS)", "setting": "[2]", "result": "26.4±0.3", "unit": "Å"}
    ]}
  ]
}
